Laboratory results: PMC12603737, “Transmembrane domain interactions underlie NSG1 regulation of sortilin ectodomain shedding” (The Journal of Biological Chemistry, 2025)

Assays:
[1] = biological target: T1, sortilin T770W (human, UniProt Q99523 78-831, T770W); assay: cell-based or functional assay
T1 sequence (looked up): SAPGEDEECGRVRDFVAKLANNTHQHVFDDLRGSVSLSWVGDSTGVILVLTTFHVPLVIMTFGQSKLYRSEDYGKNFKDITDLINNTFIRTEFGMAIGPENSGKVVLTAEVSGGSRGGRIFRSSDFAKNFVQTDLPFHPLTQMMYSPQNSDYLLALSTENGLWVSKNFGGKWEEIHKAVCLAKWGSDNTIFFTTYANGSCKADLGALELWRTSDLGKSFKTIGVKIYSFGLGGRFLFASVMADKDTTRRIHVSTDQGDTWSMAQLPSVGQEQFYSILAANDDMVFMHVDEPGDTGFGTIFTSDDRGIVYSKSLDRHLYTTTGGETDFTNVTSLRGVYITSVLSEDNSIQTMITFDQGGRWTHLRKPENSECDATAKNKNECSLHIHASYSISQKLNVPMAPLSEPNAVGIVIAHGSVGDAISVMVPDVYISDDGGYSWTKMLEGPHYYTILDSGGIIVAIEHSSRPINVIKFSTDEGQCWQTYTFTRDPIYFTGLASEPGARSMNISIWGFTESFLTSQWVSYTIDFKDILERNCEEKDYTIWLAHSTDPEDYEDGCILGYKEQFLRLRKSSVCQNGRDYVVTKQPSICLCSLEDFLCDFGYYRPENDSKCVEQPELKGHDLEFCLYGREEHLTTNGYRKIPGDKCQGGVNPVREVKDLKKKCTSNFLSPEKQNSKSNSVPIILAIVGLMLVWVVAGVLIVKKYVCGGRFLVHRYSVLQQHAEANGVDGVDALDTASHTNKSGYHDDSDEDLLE

[2] = biological target: T2, sortilin A773W (human, UniProt Q99523 78-831, A773W); assay: cell-based or functional assay
T2 sequence (looked up): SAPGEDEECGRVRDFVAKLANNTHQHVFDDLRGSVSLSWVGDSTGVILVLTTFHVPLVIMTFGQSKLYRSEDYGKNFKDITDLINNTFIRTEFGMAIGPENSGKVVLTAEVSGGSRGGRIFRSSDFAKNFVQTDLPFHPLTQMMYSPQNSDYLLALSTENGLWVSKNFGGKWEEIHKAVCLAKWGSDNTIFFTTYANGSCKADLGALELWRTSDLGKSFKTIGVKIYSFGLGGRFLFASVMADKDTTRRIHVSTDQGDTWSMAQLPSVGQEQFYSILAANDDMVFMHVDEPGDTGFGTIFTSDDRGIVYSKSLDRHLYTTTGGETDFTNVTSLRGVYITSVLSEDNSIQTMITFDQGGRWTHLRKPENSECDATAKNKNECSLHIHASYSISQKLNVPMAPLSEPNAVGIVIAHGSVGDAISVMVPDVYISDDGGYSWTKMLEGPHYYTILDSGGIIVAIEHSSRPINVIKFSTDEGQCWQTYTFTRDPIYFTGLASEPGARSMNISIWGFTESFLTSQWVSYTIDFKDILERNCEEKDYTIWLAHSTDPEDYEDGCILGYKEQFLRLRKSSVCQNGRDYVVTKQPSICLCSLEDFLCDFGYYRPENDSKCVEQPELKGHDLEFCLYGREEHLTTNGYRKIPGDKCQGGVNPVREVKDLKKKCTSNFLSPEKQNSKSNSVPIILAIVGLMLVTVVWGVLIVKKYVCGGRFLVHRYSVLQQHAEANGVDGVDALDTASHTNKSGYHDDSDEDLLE

[3] = biological target: T1, sortilin T770W; assay: co-IP; HEK293MSR cells overexpressing sortilin WT or TMD mutants along with NSG1; lysis in 5 mM CHAPS buffer; IP with rabbit anti-sortilin (control rabbit IgG), protein A-agarose, 4 °C; NSG1 normalized to precipitated sortilin, percent of WT; five independent experiments; details: partners not purified
[4] = biological target: T2, sortilin A773W; assay: as above; details: partners not purified
[5] = biological target: T3, sortilin Y781K (human, UniProt Q99523 78-831, Y781K); assay: as above; details: partners not purified
T3 construct: signal peptide in the construct; propeptide too; Full-length human SORT1 with a mutation at the cytoplasmic border of the TMD; source: HEK293MSR, transfected, in lysate (5 mM CHAPS)
T3 sequence (looked up): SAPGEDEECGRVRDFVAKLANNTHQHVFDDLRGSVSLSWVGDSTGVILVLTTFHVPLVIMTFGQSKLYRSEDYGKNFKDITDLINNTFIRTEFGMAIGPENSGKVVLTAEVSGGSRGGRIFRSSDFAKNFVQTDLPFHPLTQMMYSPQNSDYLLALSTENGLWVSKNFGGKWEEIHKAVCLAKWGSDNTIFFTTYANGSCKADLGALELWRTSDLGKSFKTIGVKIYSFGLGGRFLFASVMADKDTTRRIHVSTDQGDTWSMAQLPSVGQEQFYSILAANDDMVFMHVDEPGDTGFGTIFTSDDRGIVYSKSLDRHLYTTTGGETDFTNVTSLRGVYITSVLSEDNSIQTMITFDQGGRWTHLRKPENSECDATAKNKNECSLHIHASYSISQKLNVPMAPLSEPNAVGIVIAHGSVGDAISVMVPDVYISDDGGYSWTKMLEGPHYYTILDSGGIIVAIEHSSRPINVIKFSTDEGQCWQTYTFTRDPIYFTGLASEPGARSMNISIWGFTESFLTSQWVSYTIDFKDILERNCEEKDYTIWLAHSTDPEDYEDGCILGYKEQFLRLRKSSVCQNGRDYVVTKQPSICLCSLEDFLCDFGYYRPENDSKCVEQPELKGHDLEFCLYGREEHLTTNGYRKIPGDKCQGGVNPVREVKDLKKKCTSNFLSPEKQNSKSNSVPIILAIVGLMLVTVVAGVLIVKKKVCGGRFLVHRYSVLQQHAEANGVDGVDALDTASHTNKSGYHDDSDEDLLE

sortilin ectodomain accumulated in conditioned media of HEK293MSR cells cotransfected with NSG1 (Western blot), percent of WT sortilin [1]: 40 % of WT sortilin
sortilin ectodomain accumulated in conditioned media of HEK293MSR cells cotransfected with NSG1 (Western blot), percent of WT sortilin [2]: 46 % of WT sortilin
NSG1 coimmunoprecipitated, normalized to immunoprecipitated sortilin, percent of WT sortilin [3]: 146%
NSG1 coimmunoprecipitated, normalized to immunoprecipitated sortilin, percent of WT sortilin [4]: 129%
NSG1 coimmunoprecipitated, normalized to immunoprecipitated sortilin, percent of WT sortilin [5]: 130%
B1: neuron-specific gene 1 (NSG1) (natural protein, human, UniProt P42857 1-185, looked up)
chain: MVKLGNNFAEKGTKQPLLEDGFDTIPLMTPLDVNQLQFPPPDKVVVKTKTEYEPDRKKGKARPPQIAEFTVSITEGVTERFKVSVLVLFALAFLTCVVFLVVYKVYKYDRACPDGFVLKNTQCIPEGLESYYAEQDSSAREKFYTVINHYNLAKQSITRSVSPWMSVLSEEKLSEQETEAAEKSA
notes: Human NSG1, subcloned from the pPR3 yeast two-hybrid library vector into pcDNA3; UniProt P42857 is printed for the modelling; no tag is named, detection with an anti-NSG1 antibody; source: HEK293MSR, transiently transfected, in lysate (5 mM CHAPS)
